*1 amine or outer side, *2 acyl side, *3 side chain or, on linkers, in order; H or OH if unused. Where no end group is shown, it is not given here. [ ]: non-standard residue; d: D form. Dap(Dnp) = diaminopropionic acid carrying a 2,4-dinitrophenyl quencher, O=C([C@H](CNc1ccc([N+](=O)[O-])cc1[N+](=O)[O-])N[*:1])[*:2]; 2Abz = Nc1ccccc1C(=O)O
These binders were tested against circularly permuted Caspase-2 double mutant Asp323Thr/His226Ala (human) (UniProt P42575).
UniProt P42575, sequence (P42575 whole entry H226A/D323T): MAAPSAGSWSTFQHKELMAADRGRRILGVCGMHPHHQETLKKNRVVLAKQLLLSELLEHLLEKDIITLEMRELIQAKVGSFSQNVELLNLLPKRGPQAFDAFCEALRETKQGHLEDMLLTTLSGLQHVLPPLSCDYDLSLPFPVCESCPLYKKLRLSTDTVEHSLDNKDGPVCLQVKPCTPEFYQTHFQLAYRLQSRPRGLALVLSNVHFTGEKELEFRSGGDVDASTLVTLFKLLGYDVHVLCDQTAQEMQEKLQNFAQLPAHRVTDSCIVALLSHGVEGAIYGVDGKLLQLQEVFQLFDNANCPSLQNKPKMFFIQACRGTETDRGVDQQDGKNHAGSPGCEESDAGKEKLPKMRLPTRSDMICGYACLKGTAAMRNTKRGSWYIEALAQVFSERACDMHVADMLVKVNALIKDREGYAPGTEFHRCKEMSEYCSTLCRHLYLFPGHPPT

Binder	K M (Michaelis-Menten kinetics, FRET peptide-based cleavage assay, 1 μM enzyme) [µM]
[2Abz]VDVADAA-{Dap(Dnp)} [Abz-VDVAD-AA-Dap(Dnp)]	57
[2Abz]VDVADGA-{Dap(Dnp)} [Abz-VDVAD-GA-Dap(Dnp)]	55
[2Abz]VDVADLA-{Dap(Dnp)} [Abz-VDVAD-LA-Dap(Dnp)]	193

Next, values leading:

K M (Michaelis-Menten kinetics, FRET peptide-based cleavage assay, 1 μM enzyme) [µM]	Binder
43	[2Abz]VDVADPA-{Dap(Dnp)} [Abz-VDVAD-PA-Dap(Dnp)]
77	[2Abz]VDVADVA-{Dap(Dnp)} [Abz-VDVAD-VA-Dap(Dnp)]
82	[2Abz]VDVADTA-{Dap(Dnp)} [Abz-VDVAD-TA-Dap(Dnp)]

From publication PMC7497161
